Experimental findings from patent US20250163117A1 (CURE GENETICS, published 2025) are described below.

For experiment [1], the target named is T1, Human IL-2RB (IL-2Rβ/CD122) protein (human, UniProt P14784 27-239).
T1 construct: Receptor protein used as SPR ligand
T1 sequence (looked up): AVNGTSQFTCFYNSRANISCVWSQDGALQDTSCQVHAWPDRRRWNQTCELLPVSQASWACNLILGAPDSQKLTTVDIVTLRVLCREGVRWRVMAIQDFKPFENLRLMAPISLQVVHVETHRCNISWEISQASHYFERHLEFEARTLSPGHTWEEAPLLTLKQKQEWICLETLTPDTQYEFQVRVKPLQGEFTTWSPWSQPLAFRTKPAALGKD
Description: SPR (Biacore, receptor immobilised on CM5 chip, IL-2 as analyte). Here is the method: (§1) The human IL-2 receptors used in this study included IL-2Rα/CD25, IL-2Rβ/CD122, common γ receptor/CD132, IL-2Rβ&IL-2Rγ heterodimer protein, and IL-2Rβ&IL-2Rα&IL-2Rγ protein. The IL-2 receptor proteins were immobilized on a Biacore™ sensor chip CM5 according to manufacturer's protocol. […] The resulting sensorgrams were analyzed with the native instrument software to calculate the binding affinities.
For orientation: SPR reads the build-up and loss of mass on a sensor chip optically.

The target in experiment [2] is T2, Human IL-2RA (IL-2Rα/CD25) protein (human, UniProt P01589 22-217, limits assumed).
T2 construct: Receptor protein used as SPR ligand
T2 sequence (looked up): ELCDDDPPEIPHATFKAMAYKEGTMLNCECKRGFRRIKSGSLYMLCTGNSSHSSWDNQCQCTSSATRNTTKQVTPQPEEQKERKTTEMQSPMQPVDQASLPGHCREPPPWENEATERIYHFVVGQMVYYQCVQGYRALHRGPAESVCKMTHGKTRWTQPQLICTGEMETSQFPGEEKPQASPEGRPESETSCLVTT
Described as above. Here is the method: as §1

B1: CP-trIL-2 012 (ligand)
chain: PTSSSTKKTQLQLEHLLLDLQMILNGINNYKNPLRPRDLISNINVIVLELKGSETTELKHLQSLEEELKDLEEVLNLAQSKNFHTIVEFLNRWITFSQSIISTLT
notes: H1-H3-H2-H4; loops 1 and 2 removed; de-Ala1, C58S, C125S, P65D
With B1, the binding result in experiment [1] is listed as “no binding (tested: 7.813-250 nM)”; in experiment [2], “no binding (tested: 0.977-250 nM)”.
